{"source": "paper PMC9785812", "about": "(Pharmaceutics, 2022)", "assay": "Ex vivo biodistribution in healthy BALB/c mice", "parameters": "species or system mouse", "conditions": "mouse, iv; for tissue uptake dose at 1 h / tissue uptake dose at 24 h / tissue uptake dose at 72 h / SUV at 1 h / SUV at 4 h / SUV at 24 h / SUV at 72 h / tissue uptake dose at 4 h: total radioactivity", "procedure": "Quantification of activity was performed with an automated gamma counter equipped with a 3-in NaI(Tl) detector coupled to a multichannel analyzer (2480 Wizard^2, Perkin Elmer, Zaventem, Belgium). The results were corrected for background signal, physical decay during counting and detector dead time.\nAll animal experiments were performed in compliance with the Ethical Committee Animal Studies of Medanex Clinic (EC MxCl 2020-163 and EC MxCl 2021-173), the Belgian laboratory animal legislation and the European Communities Council Directive of 22 September 2010 (2010/63/EU). Male BALB/c and NMRI nude mice were purchased from Janvier (Bio Services, Uden, The Netherlands) and housed in ventilated cages under standard laboratory conditions (12 h light/dark cycle) at the animal facility of SCK CEN. All animals had access to food and water ad libitum.\nAdditionally, similar biodistribution studies were performed with free (unlabeled) [^153Sm]SmCl3 to identify the organs with ^153Sm accumulation in case of release from the complex. […] The mice were sacrificed by an overdose pentobarbital (200 µL of 60 mg/mL) 1, 4, 24 and 72 h post-injection (p.i.) (n = 3–4 per time point). Blood was collected via cardiac puncture. Organs of interest were collected in tared tubes and weighed. The activity in the different organs was measured in the gamma counter. For the calculation of the total activity in the blood, bone and muscle, the masses were assumed to be, respectively, 7, 12 and 40% of the total body mass. Data were expressed as a percentage of injected activity (%IA) and standardized uptake value (SUV). %IA was calculated as (counts per min (cpm) in organ)/(IA converted to cpm) × 100. SUV was calculated as (activity in cpm in organ/weight of organ in g)/(IA/total body weight in g).", "key": {"[1]": {"conditions": "male, BALB/c, bone, read-out: Bone %IA"}, "[2]": {"conditions": "male, BALB/c, bone, read-out: Bone SUV"}, "[3]": {"conditions": "male, BALB/c, in vivo, read-out: Excreted %IA"}, "[4]": {"conditions": "male, BALB/c, intestines, read-out: Intestines %IA"}, "[5]": {"conditions": "male, BALB/c, kidneys, read-out: Kidneys SUV"}, "[6]": {"conditions": "male, BALB/c, liver, read-out: Liver SUV"}, "[7]": {"conditions": "male, BALB/c, muscle, read-out: Muscle %IA"}, "[8]": {"conditions": "male, BALB/c, pancreas, read-out: Pancreas %IA"}, "[9]": {"conditions": "male, BALB/c, spleen, read-out: Spleen %IA"}, "[10]": {"conditions": "male, BALB/c, spleen, read-out: Spleen SUV"}}, "note": "Read-outs that look alike come from different tables or passages of the source."}
{"smiles": "C[C@@H](O)[C@H](NC(=O)[C@@H]1CSSC[C@H](NC(=O)[C@@H](Cc2ccccc2)NC(=O)CN2CCN(CC(=O)O)CCN(CC(=O)O)CCN(CC(=O)O)CC2)C(=O)N[C@@H](Cc2ccc(O)cc2)C(=O)N[C@H](Cc2c[nH]c3ccccc23)C(=O)N[C@@H](CCCCN)C(=O)N[C@@H]([C@@H](C)O)C(=O)N1)C(=O)O", "note": "[[^153Sm]Sm-DOTA-TATE, metal not drawn]", "values": [{"measurement": "tissue uptake dose at 1 h", "setting": "male, BALB/c, blood, read-out: Blood %IA", "value": "0.7 ± 0.3", "unit": "%ID"}, {"measurement": "tissue uptake dose at 1 h", "setting": "[1]", "value": "0.8 ± 0.4", "unit": "%ID"}, {"measurement": "tissue uptake dose at 24 h", "setting": "[1]", "value": "0.7 ± 0.1", "unit": "%ID"}, {"measurement": "tissue uptake dose at 72 h", "setting": "[1]", "value": "0.6 ± 0.1", "unit": "%ID"}, {"measurement": "SUV at 1 h", "setting": "[2]", "value": 0.1, "unit": "SUV"}, {"measurement": "SUV at 4 h", "setting": "[2]", "value": 0.1, "unit": "SUV"}, {"measurement": "SUV at 24 h", "setting": "[2]", "value": 0.1, "unit": "SUV"}, {"measurement": "SUV at 72 h", "setting": "[2]", "value": 0.1, "unit": "SUV"}, {"measurement": "SUV at 1 h", "setting": "male, BALB/c, heart, read-out: Heart SUV", "value": 0.1, "unit": "SUV"}, {"measurement": "tissue uptake dose at 1 h", "setting": "[3]", "value": "82 ± 4.8", "unit": "%ID"}, {"measurement": "tissue uptake dose at 4 h", "setting": "[3]", "value": "90.2 ± 0.7", "unit": "%ID"}, {"measurement": "tissue uptake dose at 24 h", "setting": "[3]", "value": "96.6 ± 0.4", "unit": "%ID"}, {"measurement": "tissue uptake dose at 1 h", "setting": "[4]", "value": "0.6 ± 0.1", "unit": "%ID"}, {"measurement": "tissue uptake dose at 4 h", "setting": "[4]", "value": 0.5, "unit": "%ID"}, {"measurement": "tissue uptake dose at 72 h", "setting": "[4]", "value": 0.1, "unit": "%ID"}, {"measurement": "tissue uptake dose at 4 h", "setting": "male, BALB/c, kidneys, read-out: Kidneys %IA", "value": "3.2 ± 0.1", "unit": "%ID"}, {"measurement": "SUV at 24 h", "setting": "[5]", "value": "0.4 ± 0.1", "unit": "SUV"}, {"measurement": "SUV at 72 h", "setting": "[5]", "value": 0.1, "unit": "SUV"}, {"measurement": "tissue uptake dose at 4 h", "setting": "male, BALB/c, liver, read-out: Liver %IA", "value": "2.5 ± 0.8", "unit": "%ID"}, {"measurement": "SUV at 1 h", "setting": "[6]", "value": "0.4 ± 0.1", "unit": "SUV"}, {"measurement": "SUV at 24 h", "setting": "[6]", "value": 0.3, "unit": "SUV"}, {"measurement": "tissue uptake dose at 1 h", "setting": "male, BALB/c, lungs, read-out: Lungs %IA", "value": 0.1, "unit": "%ID"}, {"measurement": "SUV at 4 h", "setting": "male, BALB/c, lungs, read-out: Lungs SUV", "value": 0.1, "unit": "SUV"}, {"measurement": "tissue uptake dose at 4 h", "setting": "[7]", "value": "1.1 ± 0.5", "unit": "%ID"}, {"measurement": "tissue uptake dose at 24 h", "setting": "[7]", "value": 0.1, "unit": "%ID"}, {"measurement": "tissue uptake dose at 72 h", "setting": "[7]", "value": 0.1, "unit": "%ID"}, {"measurement": "SUV at 1 h", "setting": "male, BALB/c, muscle, read-out: Muscle SUV", "value": "0.6 ± 0.3", "unit": "SUV"}, {"measurement": "tissue uptake dose at 1 h", "setting": "[8]", "value": 0.1, "unit": "%ID"}, {"measurement": "tissue uptake dose at 4 h", "setting": "[8]", "value": 0.1, "unit": "%ID"}, {"measurement": "SUV at 4 h", "setting": "male, BALB/c, pancreas, read-out: Pancreas SUV", "value": 0.1, "unit": "SUV"}, {"measurement": "tissue uptake dose at 1 h", "setting": "[9]", "value": "0.3 ± 0.1", "unit": "%ID"}, {"measurement": "tissue uptake dose at 4 h", "setting": "[9]", "value": 0.3, "unit": "%ID"}, {"measurement": "tissue uptake dose at 24 h", "setting": "[9]", "value": "0.3 ± 0.1", "unit": "%ID"}, {"measurement": "tissue uptake dose at 72 h", "setting": "[9]", "value": 0.1, "unit": "%ID"}, {"measurement": "SUV at 24 h", "setting": "[10]", "value": "0.9 ± 0.3", "unit": "SUV"}, {"measurement": "SUV at 72 h", "setting": "[10]", "value": "0.3 ± 0.1", "unit": "SUV"}, {"measurement": "tissue uptake dose at 4 h", "setting": "male, BALB/c, stomach, read-out: Stomach %IA", "value": "0.1 ± 0.1", "unit": "%ID"}, {"measurement": "SUV at 1 h", "setting": "male, BALB/c, whole blood, read-out: Blood SUV", "value": 0.1, "unit": "SUV"}, {"measurement": "tissue uptake dose at 4 h", "setting": "blood, 4 h p.i., healthy male BALB/c mice, ~2-3 MBq i.v., mean ± SD, n = 3-4, read-out: Blood %IA", "value": 0.2, "unit": "%ID"}, {"measurement": "tissue uptake dose at 4 h", "setting": "bone, 4 h p.i., healthy male BALB/c mice, ~2-3 MBq i.v., mean ± SD, n = 3-4, read-out: Bone %IA", "value": "0.6 ± 0.2", "unit": "%ID"}, {"measurement": "Blood %IA", "setting": "in vivo", "value": "0.0 ± 0.0", "unit": "%IA"}, {"measurement": "Blood SUV", "setting": "in vivo", "value": "0.0 ± 0.0"}, {"measurement": "Brain %IA", "setting": "in vivo", "value": "0.0 ± 0.0", "unit": "%IA"}, {"measurement": "Brain SUV", "setting": "in vivo", "value": "0.0 ± 0.0"}, {"measurement": "Heart %IA", "setting": "in vivo", "value": "0.0 ± 0.0", "unit": "%IA"}, {"measurement": "Heart SUV", "setting": "in vivo", "value": "0.0 ± 0.0"}, {"measurement": "Lungs %IA", "setting": "in vivo", "value": "0.0 ± 0.0", "unit": "%IA"}, {"measurement": "Lungs SUV", "setting": "in vivo", "value": "0.0 ± 0.0"}, {"measurement": "Muscle SUV", "setting": "in vivo", "value": "0.0 ± 0.0"}, {"measurement": "Pancreas %IA", "setting": "in vivo", "value": "0.0 ± 0.0", "unit": "%IA"}, {"measurement": "Pancreas SUV", "setting": "in vivo", "value": "0.0 ± 0.0"}, {"measurement": "Stomach %IA", "setting": "in vivo", "value": "0.0 ± 0.0", "unit": "%IA"}, {"measurement": "tissue uptake dose at 72 h", "setting": "in vivo, 72 h p.i., healthy male BALB/c mice, ~2-3 MBq i.v., mean ± SD, n = 3-4, read-out: Excreted %IA", "value": "97.8 ± 0.2", "unit": "%ID"}, {"measurement": "tissue uptake dose at 24 h", "setting": "intestines, 24 h p.i., healthy male BALB/c mice, ~2-3 MBq i.v., mean ± SD, n = 3-4, read-out: Intestines %IA", "value": 0.2, "unit": "%ID"}, {"measurement": "tissue uptake dose at 24 h", "setting": "kidneys, 24 h p.i., healthy male BALB/c mice, ~2-3 MBq i.v., mean ± SD, n = 3-4, read-out: Kidneys %IA", "value": "0.7 ± 0.2", "unit": "%ID"}, {"measurement": "tissue uptake dose at 72 h", "setting": "kidneys, 72 h p.i., healthy male BALB/c mice, ~2-3 MBq i.v., mean ± SD, n = 3-4, read-out: Kidneys %IA", "value": 0.2, "unit": "%ID"}, {"measurement": "SUV at 4 h", "setting": "liver, 4 h p.i., healthy male BALB/c mice, ~2-3 MBq i.v., mean ± SD, n = 3-4, read-out: Liver SUV", "value": "0.5 ± 0.2", "unit": "SUV"}, {"measurement": "tissue uptake dose at 24 h", "setting": "liver, 24 h p.i., healthy male BALB/c mice, ~2-3 MBq i.v., mean ± SD, n = 3-4, read-out: Liver %IA", "value": "1.6 ± 0.2", "unit": "%ID"}, {"measurement": "tissue uptake dose at 72 h", "setting": "liver, 72 h p.i., healthy male BALB/c mice, ~2-3 MBq i.v., mean ± SD, n = 3-4, read-out: Liver %IA", "value": "1.2 ± 0.2", "unit": "%ID"}, {"measurement": "SUV at 72 h", "setting": "liver, 72 h p.i., healthy male BALB/c mice, ~2-3 MBq i.v., mean ± SD, n = 3-4, read-out: Liver SUV", "value": 0.2, "unit": "SUV"}, {"measurement": "SUV at 1 h", "setting": "lungs, 1 h p.i., healthy male BALB/c mice, ~2-3 MBq i.v., mean ± SD, n = 3-4, read-out: Lungs SUV", "value": 0.2, "unit": "SUV"}, {"measurement": "SUV at 4 h", "setting": "muscle, 4 h p.i., healthy male BALB/c mice, ~2-3 MBq i.v., mean ± SD, n = 3-4, read-out: Muscle SUV", "value": "0.2 ± 0.1", "unit": "SUV"}, {"measurement": "SUV at 1 h", "setting": "pancreas, 1 h p.i., healthy male BALB/c mice, ~2-3 MBq i.v., mean ± SD, n = 3-4, read-out: Pancreas SUV", "value": 0.2, "unit": "SUV"}, {"measurement": "SUV at 1 h", "setting": "spleen, 1 h p.i., healthy male BALB/c mice, ~2-3 MBq i.v., mean ± SD, n = 3-4, read-out: Spleen SUV", "value": "0.8 ± 0.2", "unit": "SUV"}, {"measurement": "SUV at 4 h", "setting": "spleen, 4 h p.i., healthy male BALB/c mice, ~2-3 MBq i.v., mean ± SD, n = 3-4, read-out: Spleen SUV", "value": "0.8 ± 0.2", "unit": "SUV"}, {"measurement": "tissue uptake dose at 1 h", "setting": "stomach, 1 h p.i., healthy male BALB/c mice, ~2-3 MBq i.v., mean ± SD, n = 3-4, read-out: Stomach %IA", "value": 0.2, "unit": "%ID"}]}
